Target: insulin receptor (IR-B) (UniProt P06213)
Experiment: cell-based or functional assay

Normalized IR-B EC50: 988 pM
Substance: CIU-033 (from UniProt P09681 52-93) (ligand; B1 amine-CH2CH2CH2-S-S-Cys of incretin; X=Aib)
